Each block holds one molecule with its values, some of them ahead of it. Positions of bridges follow the written chain, without caps; N, C: chain ends. Non-standard residues stand in square brackets, D forms with d. Primed or numbered codes have the meaning given here. No end group written: not given here. PEG11′ = PEG11 linker (11-unit polyethylene glycol spacer); PEG5′ = not defined here; PEG11″ = PEG11 linker; βAla = NCCC(=O)O
What was measured:
[1] = tested on: PC-9 cells; assay: Gefitinib resistance test; format: cell-based, human; design: growth of lung cancer cells: dose or concentration left out as unconfirmed
Procedure: The resistance to gefitinib, an anticancer agent, was tested by seeding human lung cancer cells, PC-9 cells, on a 24-well plate and cultured for 24 hours on a RPMI medium containing 10% fetal bovine serum. The number of living cells was counted after non-addition or addition of gefitinib ([…]), HGF (20 ng/mL), or HiP8-PEG11 (1-1000 nM) and culturing for 72 hours.

[2] = target: T1, HGF (Homo sapiens, UniProt P14210); assay: MET activation test: inhibition of HGF-induced MET activation in EHMES-1 cells; format: cell-based; conditions: at a concentration of 100 nM or more
T1 construct: the full-length human HGF cDNA was cloned into pEHX1.1 plasmid; made in house; host or cells: Chinese hamster ovary (CHO) cells
Procedure: EHMES-1 Cells were stimulated for 10 minutes while using a medium with 20 ng/ml ([…]) of an hHGF protein in the presence or absence of a cyclic peptide and washed with phosphate-buffered physiological saline (PBS). Then, 4% paraformaldehyde (PFA) was added in PBS and the resulting mixture was incubated for 30 minutes, followed by further washing three times with PBS. The cells were […] for 30 minutes with 5% goat serum and 0.02% Triton X-100 in PBS and then, incubated at 4° C. for 12 hours in Phospho-Met (Tyr1234/1235) XP rabbit mAb (D26, product of Cell Signaling Technology, Danvers, Commonwealth of Massachusetts), a monoclonal antibody. As the monoclonal antibody, used was that diluted at 1:1000 in a 1% goat serum PBS suspension. The cells were washed three times with PBS and incubated for 1 hour in a liquid obtained by diluting an HRP-conjugated anti-rabbit antibody and a 1% goat serum PBS suspension at 1:1000. […] By using a chemiluminescence method with ImmunoStar (registered trademark) LD reagent (product of Wako Pure Chemicals, Japan), chemiluminescence intensity was measured by ARVO MX (product of Perkin Elmer). Relative MET phosphorylation was calculated as the following: (chemiluminescence unit of sample—chemiluminescence unit of mock control)/(chemiluminescence unit of […]—chemiluminescence unit of mock control). […]
Target sequence in this assay (P14210 32-489 isoform P14210-3): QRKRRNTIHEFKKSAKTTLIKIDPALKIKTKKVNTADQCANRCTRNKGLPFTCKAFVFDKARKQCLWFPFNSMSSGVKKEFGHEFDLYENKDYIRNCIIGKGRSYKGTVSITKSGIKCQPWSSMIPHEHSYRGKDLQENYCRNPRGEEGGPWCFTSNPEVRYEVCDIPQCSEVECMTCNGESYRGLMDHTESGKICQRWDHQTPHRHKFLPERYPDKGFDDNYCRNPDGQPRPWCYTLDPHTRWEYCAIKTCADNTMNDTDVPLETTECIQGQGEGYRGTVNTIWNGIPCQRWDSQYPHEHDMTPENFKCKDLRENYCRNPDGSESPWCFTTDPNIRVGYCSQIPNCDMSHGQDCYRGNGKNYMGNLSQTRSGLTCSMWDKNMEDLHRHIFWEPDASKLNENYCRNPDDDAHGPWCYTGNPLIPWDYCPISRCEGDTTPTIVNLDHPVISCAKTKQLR
Target sequence in this assay (P14210 495-728): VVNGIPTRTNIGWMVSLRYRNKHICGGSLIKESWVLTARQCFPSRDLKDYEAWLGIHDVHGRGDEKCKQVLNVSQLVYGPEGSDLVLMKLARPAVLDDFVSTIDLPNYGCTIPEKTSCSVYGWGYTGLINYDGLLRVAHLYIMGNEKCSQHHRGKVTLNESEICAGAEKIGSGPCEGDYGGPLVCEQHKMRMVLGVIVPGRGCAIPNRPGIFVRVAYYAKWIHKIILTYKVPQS

[3] = target: T1, HGF; assay: Binding of cyclic peptides to immobilized HGF by SPR (Biacore T200); conditions: immobilized biotinylated HGF, single cycle kinetics; for kon: read-out: Ka (association rate); for koff: read-out: Kd (dissociation rate)
Procedure: (§1) Binding of the cyclic peptides to immobilized HGF was measured using surface plasmon resonance (SPR) with Biacore T200 (product of GE Healthcare). Specifically, 2000 resonance units (RU) of biotinylated HGF was immobilized onto a CAP sensor chip by using a biotin capture kit (product of GE Healthcare).
(§2) Binding of the cyclic peptides was tested by injecting varying concentrations of the cyclic peptides into an HBS EP+buffer (10 mM HEPES (pH 7.4), 150 mM NaCl, 3 mM EDTA, and 0.05% (v/v) Surfactant P20) containing 0.1% DMSO at a flow rate of 30 μl/min. Binding of the cyclic peptides to HGF was analyzed by single cycle kinetics analysis.

[4] = target: T2, MET (Homo sapiens, UniProt P08581); assay: MET activation assay using cells: MET activation by HGF in EHMES-1 cells; format: cell-based
T2 construct: endogenous in cells; host or cells: EHMES-1 cells
Procedure: In EHMES-1 cells, HGF activated MET at EC50=0.07 nM. The arrow in the graph indicates 0.22 nM HGF used for peptide assessment. […] The EC50 value was determined by using dose-response (variable gradient, 4 parameters) curve fitting of Prism 6.0d and plotting the logarithm of MET activation against an HGF concentration. Data thus obtained are expressed as mean±s.d. of three independent measurement results.
EHMES-1 Cells were stimulated for 10 minutes while using a medium with 20 ng/ml ([…]) of an hHGF protein in the presence or absence of a cyclic peptide and washed with phosphate-buffered physiological saline (PBS). Then, 4% paraformaldehyde (PFA) was added in PBS and the resulting mixture was incubated for 30 minutes, followed by further washing three times with PBS. […] By using a chemiluminescence method with ImmunoStar (registered trademark) LD reagent (product of Wako Pure Chemicals, Japan), chemiluminescence intensity was measured by ARVO MX (product of Perkin Elmer). Relative MET phosphorylation was calculated as the following: (chemiluminescence unit of sample—chemiluminescence unit of mock control)/(chemiluminescence unit of […]—chemiluminescence unit of mock control).

[5] = target: human hepatocyte growth factor (HGF), recombinant full-length, active two-chain form (human, UniProt P14210 32-728); assay: cell-based or functional assay
[6] = target: T3, biotinylated full-length human HGF (human, UniProt P14210 32-728, biotinylated with a succinimidyl biotin labeling kit (sites not given)); assay: SPR, Biacore T200, biotinylated HGF on CAP chip, peptide injected, single cycle kinetics
T3 construct: also called biotinylated HGF; biotinylated hHGF
Procedure: as §1, §2

[7] = target: T4, fluorescein-HGF (human, UniProt P14210 32-728, labelled with a succinimidyl fluorescein labeling kit (sites not given)); assay: competition, flow cytometry: peptide varied against the binding of 0.44 nM fluorescein-HGF to MET-Fc beads [lower panel]
T4 construct: also called fluoresceinated HGF
Procedure: (§3) Labeling of hHGF with fluorescein was performed using a succinimidyl fluorescein labeling kit (product of Dojindo). On 200 μl (50% v/v) of protein G beads (Spherotech) in Tris-buffered physiological saline (pH 7.5) containing 0.1% BSA and […] of Tween-20, 5 μg of MET-extracellular domain-Fc fusion protein (product of R&D systems) was immobilized. […] The fluorescence intensity of the beads was detected using a flow cytometer (product of FACS Canto II, BD Biosciences).
(§4) For a competitive test of the cyclic peptide, for each of increased concentrations of the cyclic peptide, 0.44 nM fluorescein-HGF and MET-Fc immobilized beads were mixed, the resulting mixture was incubated at 25° C. for 1 hour, and fluorescence intensity of the beads was measured using a flow cytometer.

[8] = target: T4, fluorescein-HGF; assay: competition, flow cytometry: peptide varied against the binding of 0.44 nM fluorescein-HGF to MET-Fc beads [upper panel]
Procedure: as §3, §4

[9] = target: T5, tcHGF(Xa) (human, UniProt P14210 32-490; P14210 495-728); assay: SPR, Biacore 3000, HiP8-PEG11-biotin on streptavidin chip, tcHGF(Xa) injected, steady-state affinity
T5 construct: A C-terminal hexahistidine tag was added and the sample was treated with TEV protease; also called mature HGF (Xa)
Procedure: A very limited portion of the scHGF(Xa) bound to HiP-8-PEG11. A binding rate was detected by surface plasmon resonance (SPR). RU represents a resonance unit (resonance unit). The upward arrow and the downward arrow mean start and end of HGF input, respectively. Data are expressed as mean±s.d. of typical sensorgrams performed in two iterations by using HGFs having a plurality of concentrations.
Binding of HGF and HGF fragments to immobilized HiP8-PEG11 was measured by surface plasmon resonance (SPR) with Biacore 3000 (product of Ge Flealthcare). Hip8-PEG11-biotin was supported on the surface of a streptavidin-coated chip at 10 RU (resonance unit). The test was performed by injecting HGF and HGF fragments with varying concentrations into 10 mM TBS (pH 7.4), 150 mM NaCl, and 0.05% Tween 20 (v/v) at a flow rate of 30 μl/min. Binding affinity was analyzed from a fitting model of steady-state affinity by multi-cycle kinetics analysis.

[10] = target: T4, fluorescein-HGF; assay: competition, flow cytometry: HiP-8 varied against the binding of 0.44 nM fluorescein-HGF to MET-Fc beads
Procedure: as §3, §4

T4 sequence (P14210 other isoform, or with tags, fused parts or gaps limits assumed): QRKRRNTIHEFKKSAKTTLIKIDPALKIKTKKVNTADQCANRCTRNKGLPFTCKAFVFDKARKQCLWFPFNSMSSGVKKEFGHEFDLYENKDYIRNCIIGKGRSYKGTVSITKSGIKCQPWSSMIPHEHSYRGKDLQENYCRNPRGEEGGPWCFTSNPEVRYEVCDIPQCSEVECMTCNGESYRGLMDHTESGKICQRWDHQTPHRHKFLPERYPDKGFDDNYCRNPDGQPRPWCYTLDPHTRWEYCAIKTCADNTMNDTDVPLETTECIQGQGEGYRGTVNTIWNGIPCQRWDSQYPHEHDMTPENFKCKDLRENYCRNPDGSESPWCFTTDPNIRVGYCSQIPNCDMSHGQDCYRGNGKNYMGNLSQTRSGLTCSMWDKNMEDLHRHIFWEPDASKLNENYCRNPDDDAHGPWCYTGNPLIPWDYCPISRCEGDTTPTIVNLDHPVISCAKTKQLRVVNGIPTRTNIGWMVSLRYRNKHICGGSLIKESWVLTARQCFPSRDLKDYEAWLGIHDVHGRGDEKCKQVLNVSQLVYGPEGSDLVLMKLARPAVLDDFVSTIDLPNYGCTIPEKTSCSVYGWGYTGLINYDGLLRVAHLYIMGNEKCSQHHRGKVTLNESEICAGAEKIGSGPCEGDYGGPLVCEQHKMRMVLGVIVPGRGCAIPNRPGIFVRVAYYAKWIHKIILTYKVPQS
T3 sequence (P14210 other isoform, or with tags, fused parts or gaps limits assumed): as above
human hepatocyte growth factor (HGF), recombinant full-length, active two-chain form, sequence (P14210 other isoform, or with tags, fused parts or gaps limits assumed): as above
T2 sequence (P08581 25-1390): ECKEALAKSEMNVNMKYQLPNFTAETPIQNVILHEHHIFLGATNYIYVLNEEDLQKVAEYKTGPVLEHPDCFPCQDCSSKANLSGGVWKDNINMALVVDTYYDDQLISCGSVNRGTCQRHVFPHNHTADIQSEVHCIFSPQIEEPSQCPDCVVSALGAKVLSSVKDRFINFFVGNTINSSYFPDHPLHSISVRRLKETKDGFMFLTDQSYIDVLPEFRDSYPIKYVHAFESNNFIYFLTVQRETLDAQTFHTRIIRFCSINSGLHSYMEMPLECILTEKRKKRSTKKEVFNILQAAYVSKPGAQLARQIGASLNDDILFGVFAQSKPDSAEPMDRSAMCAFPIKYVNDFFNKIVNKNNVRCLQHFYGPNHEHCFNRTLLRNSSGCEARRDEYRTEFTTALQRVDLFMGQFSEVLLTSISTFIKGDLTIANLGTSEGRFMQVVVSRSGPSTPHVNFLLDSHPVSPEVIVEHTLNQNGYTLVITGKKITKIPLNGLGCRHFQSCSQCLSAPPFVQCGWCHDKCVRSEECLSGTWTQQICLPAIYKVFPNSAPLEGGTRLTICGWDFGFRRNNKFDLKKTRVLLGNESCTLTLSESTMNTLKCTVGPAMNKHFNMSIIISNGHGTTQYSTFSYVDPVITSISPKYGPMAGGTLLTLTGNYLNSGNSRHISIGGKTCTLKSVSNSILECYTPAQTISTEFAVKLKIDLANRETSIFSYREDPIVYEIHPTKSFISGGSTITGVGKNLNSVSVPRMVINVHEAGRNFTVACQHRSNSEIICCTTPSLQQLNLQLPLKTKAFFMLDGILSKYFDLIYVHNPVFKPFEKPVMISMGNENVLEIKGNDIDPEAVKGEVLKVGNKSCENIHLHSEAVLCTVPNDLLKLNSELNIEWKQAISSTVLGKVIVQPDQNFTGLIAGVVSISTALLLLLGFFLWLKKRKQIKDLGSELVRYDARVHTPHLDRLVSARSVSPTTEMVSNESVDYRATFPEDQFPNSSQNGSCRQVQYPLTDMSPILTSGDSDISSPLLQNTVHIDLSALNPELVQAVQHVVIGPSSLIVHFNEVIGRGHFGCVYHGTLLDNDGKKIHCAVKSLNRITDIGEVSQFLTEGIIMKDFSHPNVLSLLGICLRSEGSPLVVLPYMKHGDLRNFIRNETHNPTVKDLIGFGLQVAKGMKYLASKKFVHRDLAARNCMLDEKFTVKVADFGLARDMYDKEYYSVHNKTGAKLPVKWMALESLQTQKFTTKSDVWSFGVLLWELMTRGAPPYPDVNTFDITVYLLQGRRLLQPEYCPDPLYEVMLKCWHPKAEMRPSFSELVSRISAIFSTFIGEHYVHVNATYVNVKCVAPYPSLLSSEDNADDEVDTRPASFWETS
T5 sequence (P14210 other isoform, or with tags, fused parts or gaps limits assumed, chain 1 of 2): as the sequence (P14210 32-489 isoform P14210-3) above, with K455I, Q456E, L457G counted along it
T5 sequence (P14210 495-728 limits assumed, chain 2 of 2): as the sequence (P14210 495-728) above

Molecule: COc1cc2ncnc(Nc3ccc(F)c(Cl)c3)c2cc1OCCCN1CCOCC1 [gefitinib, reference compound]
growth of lung cancer cells [1]: strongly inhibits growth of lung cancer cells

MET inhibitory activity [2]: had MET inhibitory activity
Molecule: KHKISKWKK ({CH2CO}-[dW]KHKISKWKKC; thioether N-11 (inferred)) [HiP-6, thioether cyclic peptide]

MET inhibitory activity [2]: had MET inhibitory activity
Molecule: TRKISKWYK ({CH2CO}-[dW]TRKISKWYKC; thioether N-11 (inferred)) [HiP-1, thioether cyclic peptide]

kon [3]: 700000 M⁻¹ s⁻¹ | koff [3]: 0.0079 s⁻¹
Molecule: CC[C@H](C)[C@@H]1NC(=O)[C@H](CCCNC(=N)N)NC(=O)[C@H](Cc2ccccc2)NC(=O)[C@H](CCCCN)NC(=O)[C@@H](Cc2c[nH]c3ccccc23)NC(=O)CSC[C@@H](C(=O)NCC(N)=O)NC(=O)[C@H](CCCCN)NC(=O)[C@H](Cc2ccc(O)cc2)NC(=O)[C@H](Cc2c[nH]c3ccccc23)NC(=O)[C@H](CCCCN)NC(=O)[C@H](CO)NC1=O [HiP-12, KFRISKWYK]

Molecule: biotinylated HGF: hHGF biotinylated using a succinimidyl biotin labeling kit
MET activation activity compared with non-labeled HGF [4]: activity equivalent to that of non-labeled HGF

kon [3]: 1.9e+06 M⁻¹ s⁻¹ | koff [3]: 0.004 s⁻¹
Molecule: CC[C@H](C)[C@@H]1NC(=O)[C@H](CCCCN)NC(=O)[C@H](Cc2ccccc2)NC(=O)[C@H]([C@@H](C)CC)NC(=O)[C@@H](Cc2c[nH]c3ccccc23)NC(=O)CSC[C@@H](C(=O)NCC(N)=O)NC(=O)[C@H](CCCCN)NC(=O)[C@H](Cc2ccc(O)cc2)NC(=O)[C@H](Cc2c[nH]c3ccccc23)NC(=O)[C@H](CCCCN)NC(=O)[C@H](CO)NC1=O [HiP-13, IFKISKWYK]

Molecule: fluorescein HGF: hHGF labeled with fluorescein using a succinimidyl fluorescein labeling kit
MET activation activity compared with non-labeled HGF [4]: activity equivalent to that of non-labeled HGF

MET inhibitory activity (MET activation inhibition test, EHMES-1 cells) [5]: ≥ 100 nM | Kd [6]: 12 nM
B1: cyclic peptide HiP-12 (peptide)
peptide: {CH2CO}-[dW]KFRISKWYKC
modifications: thioether N-11 (inferred)
notes: C-terminal tail after Cys not known (drawing)

MET inhibitory activity (MET activation inhibition test, EHMES-1 cells) [5]: ≥ 100 nM | Kd [6]: 2.1 nM
B2: cyclic peptide HiP-13 (peptide)
peptide: {CH2CO}-[dW]IFKISKWYKC
modifications: thioether N-11 (inferred)
notes: as for B1

MET inhibitory activity (MET activation inhibition test, EHMES-1 cells) [5]: ≥ 100 nM
B3: cyclic peptide HiP-9 (peptide)
peptide: Ac-[dW]CKVSKWSKC
modifications: thioether (positions not given here); also: thioether to Cys2 or Cys10, not given here

MET inhibitory activity (MET activation inhibition test, EHMES-1 cells) [5]: ≥ 100 nM
B4: cyclic peptide HiP-6 (peptide)
peptide: {CH2CO}-[dW]KHKISKWKKC
modifications: thioether N-11 (inferred)

IC50 (read off the curve) [7]: ~1 nM
B5: HiP-8-PEG11 (peptide)
peptide: {CH2CO}-[dW]PLSKWWYSKRC[βAla][PEG11″]
modifications: thioether N-12 (inferred)
notes: also called HiP-8 modified peptide

MET inhibitory activity (MET activation inhibition test, EHMES-1 cells) [5]: ≥ 100 nM
B6: cyclic peptide HiP-1 (peptide)
peptide: {CH2CO}-[dW]TRKISKWYKC
modifications: thioether N-11 (inferred)

IC50 (read off the curve) [8]: ~1 nM
B7: HiP-8-PEG5 (peptide)
peptide: {CH2CO}-[dW]PLSKWWYSKRC[PEG5′]
modifications: thioether N-12; also: further groups not given here
notes: HiP-8 with a PEG5 tail; also called HiP-8 modified peptide

MET inhibitory activity (MET activation inhibition test, EHMES-1 cells) [5]: ≥ 100 nM
B8: cyclic peptide HiP-10 (peptide)
peptide: Ac-[dW]RYIKLCKISKWSRC
modifications: thioether (positions not given here); also: thioether ring-closing Cys not given here (Cys7 or Cys15)

Kd [9]: 2.5 nM
B9: HiP-8-PEG11-biotin (peptide)
peptide: {CH2CO}-[dW]PLSKWWYSKRC-{βAla-PEG11′-K(D-biotin)}
modifications: thioether N-12 (inferred)
notes: also called immobilized HiP-8-PEG11; HiP-8 (in the staining text)

MET inhibitory activity (MET activation inhibition test, EHMES-1 cells) [5]: ≥ 100 nM
B10: cyclic peptide HiP-16 (peptide)
peptide: {CH2CO}-[dW]NKKVSKWYKRGC
modifications: thioether N-13 (inferred)

MET activation inhibition concentration (IC50), EHMES-1 cells stimulated with hHGF [5]: 8 nM | Kd [6]: 0.4 nM | IC50 [10]: 0.9 nM | IC50 (read off the curve) [7]: ~1 nM
B11: cyclic peptide HiP-8 (peptide)
peptide: {CH2CO}-[dW]PLSKWWYSKRC
modifications: thioether N-12 (inferred)
notes: a C-terminal tail (X')r or amide after Cys is not known

MET inhibitory activity (MET activation inhibition test, EHMES-1 cells) [5]: ≥ 100 nM
B12: cyclic peptide HiP-15 (peptide)
peptide: {CH2CO}-[dW]NRGINKYWKC
modifications: thioether N-11 (inferred)

MET inhibitory activity (MET activation inhibition test, EHMES-1 cells) [5]: ≥ 100 nM
B13: cyclic peptide HiP-14 (peptide)
peptide: {CH2CO}-[dW]QYKVSKVVYKC
modifications: thioether N-12 (inferred)
